Results: patent US20170240883A1, “CYCLIC PEPTIDES EXPRESSED BY A GENETIC PACKAGE” (Miti Biosystems GmbH, priority 2014, published 2017)

B1: NelfMvdDGS10 (N-terminal MvdE leader - 10-residue linker - MvdD enzyme-leader fusion) (protein)
chain: MSKNVKVSAPKAVPFFARFLAEQAVEANNSNSAPSASGSGSGSGSTSGSGSGSAMTVLIFTFSNDNESIPLVVKAIEAKGEKAFRFDTDRFPTEVKLDIYSGDFEGGIVTDGEHKLDLSEVSSVWYRRMRYGAKLPDSMDQQFREASLKECRLTVRGLIASLPGFHFDPMINVDRANNKQLQLQIARQLGLLTPRTLTSNNPEAVKQFAQDCKEQGIVTKMLSQFAIYGENKEENVVFTSPVTDDDLDNLEGLSFCPMTFQENVPKALELRTIIVGKQVFTAAINSQQLDGATYDWRKEGRALHEKWQAYNLPEDIEKKLLQLTAYFGLNYGAIDIIVTPDGRHVFLEINPVGEFFWLELFAPYFPISQAIAEILLTPTNQKPF
B2: Celf5ProcM (ProcM - 5-residue linker - C-terminal ProcA4.3 leader enzyme-leader fusion) (protein)
chain: MSEEQLKAFIAKVQADTSLQEQLKAEGADVVAIAKAAGFTITTEDLNSHRQNLTDDELEGVAGGSASGSGSGSAMESPSSWKTSWLAAIAPDEPHKFDRRLEWDELSEENFFAALNSEPASLEEDDPCFEEALQDALEALKAAWDLPLLPVDNNLNRPFVDVWWPIRCHSAESLRQSFVSDSAGLADEIFDQLADSLLDRLCALGDQVLWEAFNKERTPGTMLLAHLGAAGDGSGPPVREHYERFIQSHRRNGLAPLLKEFPVLGRLIGTVLSLWFQGSVEMLQRICADRTVLQQCFAIPCGHHLKTVKQGLSDPHRGGRAVAVLEFADPNSTANSSMHVVYKPKDMAVDAAYQATLADLNTHSDLSPLRTLAIHNGNGYGYMEHVVHHLCANDKELTNFYFNAGRLTALLHLLGCTDCHHENLIACGDQLLLIDTETLLEADLPDHISDASSTTAQPKPSSLQKQFQRSVLRSGLLPQWMFLGESKLAIDISALGMSPPNKPERIALGWLGFNSDGMMPGRVSQPVEIPTSLPVGIGEVNPFDRFLEDFCDGFSMQSEALIKLRNRWLDVNGVLAHFAGLPRRIVLRATRVYFTIQRQQLEPTALRSPLAQALKLEQLTRSFLLAESKPLHWPIFAAEVKQMQHLDIPFFTHLIDADALQLGGLEQELPGFIQTSGLAAAYERLRNLDTDEIAFQLRLIRGAVEARELHTTPESSPTLPPPATPEALMSSSAETSLEAAKRIAHRLLELAIRDSQGQVEWLGMDLGADGESFSFGPVGLSLYGGSIGIAHLLQRLQAQQVSLMDADAIQTAILQPLVGLVDQPSDDGRRRWWRDQPLGLSGCGGTLLALTLQGEQAMANSLLAAALPRFIEADQQLDLIGGCAGLIGSLVQLGTESALQLALRAGDHLIAQQNEEGAWSSSSSQPGLLGFSHGTAGYAAALAHLHAFSADERYRTAAAAALAYERARFNKDAGNWPDYRSIGRDSDSDEPSFMASWCHGAPGIALGRACLWGTALWDEECTKEIGIGLQTTAAVSSVSTDHLCCGSLGLMVLLEMLSAGPWPIDNQLRSHCQDVAFQYRLQALQRCSAEPIKLRCFGTKEGLLVLPGFFTGLSGMGLALLEDDPSRAVVSQLISAGLWPTESASGSGSGSAMSEEQLKAFIAKVQADTSLQEQLKAEGADVVAIAKAAGFTITTEDLNSHRQNLTDDELEGVAGG

Legend:
Human Plasma Kallikrein = biological target: T1, Human Plasma Kallikrein (Homo sapiens, UniProt P03952); experiment: Phage selection of ProcM-modified SynLib1 library on biotinylated kallikrein (output titre); format: binding; details: 24 clones from R3 6.25 nM kallikrein output
T1 construct: purchased Molecular Innovations, Inc, USA
T1 sequence (P03952 20-638): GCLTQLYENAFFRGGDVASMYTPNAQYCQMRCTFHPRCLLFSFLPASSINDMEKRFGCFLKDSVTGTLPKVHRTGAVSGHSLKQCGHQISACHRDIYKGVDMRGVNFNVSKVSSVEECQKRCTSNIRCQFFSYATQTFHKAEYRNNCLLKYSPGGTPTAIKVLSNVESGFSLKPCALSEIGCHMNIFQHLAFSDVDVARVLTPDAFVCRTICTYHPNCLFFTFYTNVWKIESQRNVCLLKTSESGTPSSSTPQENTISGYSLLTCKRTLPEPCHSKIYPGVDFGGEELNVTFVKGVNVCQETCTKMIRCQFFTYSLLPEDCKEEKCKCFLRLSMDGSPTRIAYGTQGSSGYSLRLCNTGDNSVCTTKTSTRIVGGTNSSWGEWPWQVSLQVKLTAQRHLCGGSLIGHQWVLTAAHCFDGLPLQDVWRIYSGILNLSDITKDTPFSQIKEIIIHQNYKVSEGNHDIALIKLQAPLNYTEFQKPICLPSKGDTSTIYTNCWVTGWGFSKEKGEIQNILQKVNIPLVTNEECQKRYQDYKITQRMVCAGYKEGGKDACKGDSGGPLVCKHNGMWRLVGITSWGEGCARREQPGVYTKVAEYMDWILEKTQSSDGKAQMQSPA
Method: Human Plasma Kallikrein (Molecular Innovations, Inc, USA) at 1.15 mg/ml (13 μM) solution in 4 mM acetate, 150 mM NaCl, pH 5.3 was biotinylated using NHS-PEG4-Biotin from the EZ-link micro-PEO4-biotinylation kit (Pierce Biotechnology, USA). 680 μl of water was added to the contents of the pre-weighed vial of biotinylation reagent to make a 5 mM solution. 1 μl of this solution was added to 100 μl of the kallikrein solution. This was incubated at RT for 1 hour prior to the separation of the biotinylated protein from the unreacted biotin, using a 2 ml Spin Desalting column (Pierce Biotechnology, USA). The volume of the kallikrein was made up to 350 μl with PBS (Formedium Ltd, UK) and was loaded onto the spin column which had been equilibrated with PBS (as per the manufacturer's instructions). When this solution had been absorbed into the column matrix, a further 50 μl of PBS was added on top and the column was spun in a centrifuge at 1000 g for 2 min. 395 μl of solution was collected, making the concentration of the biotinylated kallikrein about 3.25 μM.
150 μl of stock SynLib1 library (2.5e11 phage per μl) was added to 1850 μl of TE buffer, 2 μl 1 M TCEP (Melford Biolaboratories Ltd, UK) and incubated at RT for 20 minutes to reduce the peptides on the phage. […]

[1] = biological target: T2, substrate peptide NH2-KPTTVKPPSDFEEWTINVC-COOH
T2 chain: KPTTVKPPSDFEEWTINVC

Molecule	share of the clones that were sequenced (Human Plasma Kallikrein)	dehydration of the peptide, LC-ESI mass spectrometry [1]
AACKGPSPTPNNC [clone 24]	12.5%	
B1		one portion of the used peptide P2 was found showing triple dehydration with a m/z value of 1069.022
B2		one portion of the used peptide P2 was found showing triple dehydration with a m/z value of 1069.022
